Results: patent US20030060599A1, “Tripeptide amides that block viral infectivity and methods of use thereof” (published 2003)
Ends that are not written are not given here.

Molecular target: major capsid protein (p24) of HIV-1 (HIV-1 (SF-2), UniProt P03349)
Assay: cell-based or functional assay

Binder | antiviral inhibitory activity as determined by p24 production and RT activity in the culture supernatants (H9 cells, HIV-1 SF-2, 100 µM peptide) [%]
Glu-Pro-Phe-NH2 [Glu-Pro-Phe-NH2] | > 80
Pro-Lys-Glu-NH2 [Pro-Lys-Glu-NH2] | > 80
Thr-Leu-Glu-NH2 [Thr-Leu-Glu-NH2] | > 80
Arg-Val-Leu-NH2 [Arg-Val-Leu-NH2] | > 80
